Laboratory results as given in US9206411B2, “Staphylococcal Phage2638A endolysin amidase domain is lytic for Staphylococcus aureus” (priority 2012, dated 2015).

What was measured:
S. aureus Tanji 26 = assay: Plate lysis, susceptibility of strains to 2638A (Table 1); assay type: cell-based
Description: (§1) Purified proteins for each construct were diluted in sterile nickel column elution buffer, and 6 μL of lysostaphin (11 μg) or the constructs (0.2 nmoles or ˜11 μg for the repaired construct 2638A 1-180Mut-486) was spotted onto a freshly spread lawn of S. aureus strain NRS119 (SA LinR #12; linezolid resistant) growing cells that had air dried for 30 min on tryptic soy agar (TSA) plates. L=[…] Lysostaphin (Sigma); Spot 1=11 μg; all other constructs are 0.2 nmoles (˜11 μg for the repaired construct 2638A 1-180Mut-486) […]. The spotted plates were air dried for 10 min in a laminar flow hood and incubated overnight in a 37° C. environment. Scoring of the cleared spots occurred within 20 h of plating the cells.
(§2) The Plate Lysis assay results (FIG. 3) agree with the turbidity reduction assay. Each of the M23 peptidase dependent or SH3b-truncating constructs showing weak activity on S. aureus strain Newman strain. In addition to the Plate Lysis results in FIG. 3, we have also examined numerous strains with reduced but real lytic activity (Table 1). However, the plate lysis results with the 2638A endolysin constructs are extremely novel in appearance. Plate lysis results are routinely visualized as a discrete cleared spot on a lawn of bacteria after a single overnight of culture. […] In contrast, the 2638A endolysin is unique in that sometimes this cleared zone requires multiple days to appear. […] Thus, there is also a likelihood that the enzyme might work preferentially on late log or stationary phase cells in the plate lysis assay, as the 3 day old culture is likely not growing as quickly as the freshly-plated overnight culture.

S. aureus Tanji 31 = assay: as above; assay type: cell-based
Description: as §1, §2

S. aureus Tanji 49 = assay: as above; assay type: cell-based
Description: as §1, §2

S. xylosus = assay: as above; assay type: cell-based
Description: as §1, §2

S. aureus ANG 144 = assay: as above; assay type: cell-based
Description: as §1, §2

S. aureus Newman = assay: as above; assay type: cell-based
Description: as §1, §2

S. aureus Newman Δica = assay: as above; assay type: cell-based
Description: as §1, §2

S. aureus Reynolds (CP-) = assay: as above; assay type: cell-based
Description: as §1, §2

S. aureus Tanji 9 = assay: as above; assay type: cell-based
Description: as §1, §2

S. aureus Tanji 2 = assay: as above; assay type: cell-based
Description: as §1, §2

S. hyicus = assay: as above; assay type: cell-based
Description: as §1, §2

S. warneri = assay: as above; assay type: cell-based
Description: as §1, §2

S. epidermidis = assay: as above; assay type: cell-based
Description: as §1, §2

S. aureus Tanji 3 = assay: as above; assay type: cell-based
Description: as §1, §2

S. aureus Newman ΔtagO = assay: as above; assay type: cell-based
Description: as §1, §2

S. aureus Reynolds (CP5) = assay: as above; assay type: cell-based
Description: as §1, §2

S. aureus 305 = assay: as above; assay type: cell-based
Description: as §1, §2

S. aureus NRS 385 (MRSA) = assay: as above; assay type: cell-based
Description: as §1, §2

S. aureus Reynolds (CP8) = assay: as above; assay type: cell-based
Description: as §1, §2

S. aureus SA113 ΔtagO = assay: as above; assay type: cell-based
Description: as §1, §2

S. aureus ANG 133 = assay: as above; assay type: cell-based
Description: as §1, §2

S. aureus Tanji 19 = assay: as above; assay type: cell-based
Description: as §1, §2

S. aureus Tanji 28 = assay: as above; assay type: cell-based
Description: as §1, §2

S. aureus ALC 1342 = assay: as above; assay type: cell-based
Description: as §1, §2

S. aureus Newman sm^r = assay: as above; assay type: cell-based
Description: as §1, §2

S. aureus Tanji 48 = assay: as above; assay type: cell-based
Description: as §1, §2

S. aureus Tanji 1 = assay: as above; assay type: cell-based
Description: as §1, §2

MRSA strain NRS382 = assay: Control of systemic MRSA infection in a murine model; assay type: in vivo, Staphylococcus aureus
S. aureus Tanji 29 = assay: Plate lysis, susceptibility of strains to 2638A (Table 1); assay type: cell-based; set-up: key: − = >100 pmol; (+) = very faint lysis zone; + = 100 pmol; ++ = 10 pmol; +++ = 1 pmol
Description: as §1
The Plate Lysis assay results (FIG. 3) agree with the turbidity reduction assay. Each of the M23 peptidase dependent or SH3b-truncating constructs showing weak activity on S. aureus strain Newman strain. In addition to the Plate Lysis results in FIG. 3, we have also examined numerous strains with reduced but real lytic activity (Table 1). However, the plate lysis results with the 2638A endolysin constructs are extremely novel in appearance. Plate lysis results are routinely visualized as a discrete cleared spot on a lawn of bacteria after a single overnight of culture. […]

B1: 2638A Endolysin: 486 amino acid staphylococcal phage 2638A endolysin (SEQ ID NO:4), C-terminally 6×His-tagged; M23 peptidase, amidase, SH3b domains (protein)
chain: MLTAIDYLTKKGWKISSDPRTYDGYPKNYGYRNYHENGINYDEFCGGYHRAFDVYSNETNDVPAVTSGTVIEANDYGNFGGTFVIRDANDNDWIYGHLQRGSMRFVVGDKVNQGDIIGLQGNSNYYDNPMSVHLHLQLRPKDAKKDEKSQVCSGLAMEKYDITNLNAKQDKSKNGSVKELKHIYSNHIKGNKITAPKPSIQGVVIHNDYGSMTPSQYLPWLYARENNGTHVNGWASVYANRNEVLWYHPTDYVEWHCGNQWANANLIGFEVCESYPGRISDKLFLENEEATLKVAADVMKSYGLPVNRNTVRLHNEFFGTSCPHRSWDLHVGKGEPYTTTNINKMKDYFIKRIKHYYDGGKLEVSKAATIKQSDVKQEVKKQEAKQIVKATDWKQNKDGIWYKAEHASFTVTAPEGIITRYKGPWTGHPQAGVLQKGQTIKYDEVQKFDGHVWVSWETFEGETVYMPVRTWDAKTGKVGKLWGEIKLEHHHHHH
modifications: C-terminal His6 tag; Mutated Phage 2638a
notes: M23 peptidase, amidase, SH3b domains
Susceptibility to lysis by 2638A, day 1 (S. aureus Tanji 26; day 1): − (− = >100 pmol) | Susceptibility to lysis by 2638A, day 3+ (S. aureus Tanji 26; day 3+): + (+ = 100 pmol) | Susceptibility to lysis by 2638A, day 1 (S. aureus Tanji 31; day 1): − (− = >100 pmol) | Susceptibility to lysis by 2638A, day 3+ (S. aureus Tanji 31; day 3+): − (− = >100 pmol) | Susceptibility to lysis by 2638A, day 1 (S. aureus Tanji 49): − (− = >100 pmol) | Susceptibility to lysis by 2638A, day 1 (S. xylosus; day 1): − (− = >100 pmol) | Susceptibility to lysis by 2638A, day 3+ (S. xylosus; day 3+): − (− = >100 pmol) | Susceptibility to lysis by 2638A, day 1 (S. aureus ANG 144; day 1): − (− = >100 pmol) | Susceptibility to lysis by 2638A, day 3+ (S. aureus ANG 144; day 3+): − (− = >100 pmol) | Susceptibility to lysis by 2638A, day 1 (S. aureus Newman; day 1): − (− = >100 pmol) | Susceptibility to lysis by 2638A, day 3+ (S. aureus Newman; day 3+): − (− = >100 pmol) | Susceptibility to lysis by 2638A, day 1 (S. aureus Newman Δica; day 1): − (− = >100 pmol) | Susceptibility to lysis by 2638A, day 3+ (S. aureus Newman Δica; day 3+): − (− = >100 pmol) | Susceptibility to lysis by 2638A, day 1 (S. aureus Reynolds (CP-); day 1): − (− = >100 pmol) | Susceptibility to lysis by 2638A, day 3+ (S. aureus Reynolds (CP-); day 3+): − (− = >100 pmol) | Susceptibility to lysis by 2638A, day 1 (S. aureus Tanji 9; day 1): − (− = >100 pmol) | Susceptibility to lysis by 2638A, day 3+ (S. aureus Tanji 9; day 3+): − (− = >100 pmol) | Susceptibility to lysis by 2638A, day 1 (S. aureus Tanji 2; day 1): − (− = >100 pmol) | Susceptibility to lysis by 2638A, day 3+ (S. aureus Tanji 2; day 3+): + (+ = 100 pmol) | Susceptibility to lysis by 2638A, day 1 (S. hyicus; day 1): − (− = >100 pmol) | Susceptibility to lysis by 2638A, day 3+ (S. hyicus; day 3+): − (− = >100 pmol) | Susceptibility to lysis by 2638A, day 1 (S. warneri; day 1): − (− = >100 pmol) | Susceptibility to lysis by 2638A, day 3+ (S. warneri; day 3+): − (− = >100 pmol) | Susceptibility to lysis by 2638A, day 1 (S. epidermidis; day 1): − (− = >100 pmol) | Susceptibility to lysis by 2638A, day 3+ (S. epidermidis; day 3+): + (+ = 100 pmol) | Susceptibility to lysis by 2638A, day 1 (S. aureus Tanji 3; day 1): − (− = >100 pmol) | Susceptibility to lysis by 2638A, day 3+ (S. aureus Tanji 3; day 3+): − (− = >100 pmol) | Susceptibility to lysis by 2638A, day 1 (S. aureus Newman ΔtagO; day 1): +++ (+++ = 1 pmol) | Susceptibility to lysis by 2638A, day 3+ (S. aureus Newman ΔtagO; day 3+): +++ (+++ = 1 pmol) | Susceptibility to lysis by 2638A, day 1 (S. aureus Reynolds (CP5); day 1): − (− = >100 pmol) | Susceptibility to lysis by 2638A, day 3+ (S. aureus Reynolds (CP5); day 3+): − (− = >100 pmol) | Susceptibility to lysis by 2638A, day 1 (S. aureus 305; day 1): − (− = >100 pmol) | Susceptibility to lysis by 2638A, day 3+ (S. aureus 305; day 3+): − (− = >100 pmol) | Susceptibility to lysis by 2638A, day 1 (S. aureus NRS 385 (MRSA); day 1): − (− = >100 pmol) | Susceptibility to lysis by 2638A, day 3+ (S. aureus NRS 385 (MRSA); day 3+): − (− = >100 pmol) | Susceptibility to lysis by 2638A, day 1 (S. aureus Reynolds (CP8); day 1): − (− = >100 pmol) | Susceptibility to lysis by 2638A, day 3+ (S. aureus Reynolds (CP8); day 3+): − (− = >100 pmol) | Susceptibility to lysis by 2638A, day 1 (S. aureus SA113 ΔtagO; day 1): +++ (+++ = 1 pmol) | Susceptibility to lysis by 2638A, day 3+ (S. aureus SA113 ΔtagO; day 3+): +++ (+++ = 1 pmol) | Susceptibility to lysis by 2638A, day 1 (S. aureus ANG 133; day 1): − (− = >100 pmol) | Susceptibility to lysis by 2638A, day 3+ (S. aureus ANG 133; day 3+): − (− = >100 pmol) | Susceptibility to lysis by 2638A, day 1 (S. aureus Tanji 19; day 1): − (− = >100 pmol) | Susceptibility to lysis by 2638A, day 3+ (S. aureus Tanji 19; day 3+): + (+ = 100 pmol) | Susceptibility to lysis by 2638A, day 1 (S. aureus Tanji 28; day 1): − (− = >100 pmol) | Susceptibility to lysis by 2638A, day 3+ (S. aureus Tanji 28; day 3+): − (− = >100 pmol) | Susceptibility to lysis by 2638A, day 1 (S. aureus ALC 1342; day 1): − (− = >100 pmol) | Susceptibility to lysis by 2638A, day 3+ (S. aureus ALC 1342; day 3+): − (− = >100 pmol) | Susceptibility to lysis by 2638A, day 1 (S. aureus Newman sm^r; day 1): − (− = >100 pmol) | Susceptibility to lysis by 2638A, day 3+ (S. aureus Newman sm^r; day 3+): − (− = >100 pmol) | Susceptibility to lysis by 2638A, day 1 (S. aureus Tanji 48; day 1): − (− = >100 pmol) | Susceptibility to lysis by 2638A, day 3+ (S. aureus Tanji 48; day 3+): + (+ = 100 pmol) | Susceptibility to lysis by 2638A, day 1 (S. aureus Tanji 1; day 1): − (− = >100 pmol) | Susceptibility to lysis by 2638A, day 3+ (S. aureus Tanji 1; day 3+): − (− = >100 pmol) | % Survival (MRSA strain NRS382; 0 hours, Balb/c mice, I.P. 4×10^7 CFU, treated 30 min post infection: 2638A 200 μg/mouse I.P., Vancomycin 375 μg/mouse s.c., Oxacillin 1250 μg/mouse s.c.): 100% | % Survival (MRSA strain NRS382; 4 hours, same model and doses): 100% | % Survival (MRSA strain NRS382; 8 hours, same model and doses): 100% | % Survival (MRSA strain NRS382; 12 hours, same model and doses): 100% | % Survival (MRSA strain NRS382; 16 hours, same model and doses): 100% | % Survival (MRSA strain NRS382; 20 hours, same model and doses): 100% | % Survival (MRSA strain NRS382; 24 hours, same model and doses): 100% | % Survival (MRSA strain NRS382; 28 hours, same model and doses): 100% | % Survival (MRSA strain NRS382; 32 hours, same model and doses): 100% | % Survival (MRSA strain NRS382; 36 hours, same model and doses): 100% | % Survival (MRSA strain NRS382; 40 hours, same model and doses): 100% | % Survival (MRSA strain NRS382; 44 hours, same model and doses): 100% | % Survival (MRSA strain NRS382; 48 hours (end of the experiment), same model and doses): 100% | septicemia score at the end of the experiment (MRSA strain NRS382; 48 hours, score 0-5 per Table 4): 0 | Mean NRS382 Titer in the Blood (MRSA strain NRS382; Recovered 48 hr post infection from surviving mice, same doses): 0.8 ± 1.9 × 10^1 CFU/ml | Susceptibility to lysis by 2638A, day 1 (S. aureus Tanji 29): (+)
